{
  "source": "paper PMC3170926",
  "about": "(Bioconjugate chemistry, 2011)",
  "key": {"[1]": {"conditions": "cited from earlier work; for thermodynamic stability constant log K: Ga(III) complex"}, "[2]": {"set-up": "species or system SCID mice", "conditions": "mouse, in vivo, tumor uptake"}, "[3]": {"tested_on": "integrin αvβ3 positive PC-3 tumor xenografts", "set-up": "species or system SCID mice", "conditions": "mouse, in vivo"}, "[4]": {"set-up": "species or system SCID mice", "conditions": "mouse, in vivo"}, "[5]": {"set-up": "species or system SCID mice", "conditions": "mouse, in vivo", "remark": "listed apart in the source"}, "[6]": {"tested_on": "integrin αvβ3 positive PC-3 tumor xenografts", "set-up": "species or system SCID mice", "conditions": "mouse, in vivo", "remark": "listed apart in the source"}, "[7]": {"set-up": "species or system SCID mice", "conditions": "mouse, in vivo", "remark": "listed apart in the source"}, "integrin αvβ3": {"target": "integrin αvβ3 (human (endogenous in U87MG), UniProt P06756 31-1048; P05106 27-788)", "sequence (P06756 31-1048, chain 1 of 2)": "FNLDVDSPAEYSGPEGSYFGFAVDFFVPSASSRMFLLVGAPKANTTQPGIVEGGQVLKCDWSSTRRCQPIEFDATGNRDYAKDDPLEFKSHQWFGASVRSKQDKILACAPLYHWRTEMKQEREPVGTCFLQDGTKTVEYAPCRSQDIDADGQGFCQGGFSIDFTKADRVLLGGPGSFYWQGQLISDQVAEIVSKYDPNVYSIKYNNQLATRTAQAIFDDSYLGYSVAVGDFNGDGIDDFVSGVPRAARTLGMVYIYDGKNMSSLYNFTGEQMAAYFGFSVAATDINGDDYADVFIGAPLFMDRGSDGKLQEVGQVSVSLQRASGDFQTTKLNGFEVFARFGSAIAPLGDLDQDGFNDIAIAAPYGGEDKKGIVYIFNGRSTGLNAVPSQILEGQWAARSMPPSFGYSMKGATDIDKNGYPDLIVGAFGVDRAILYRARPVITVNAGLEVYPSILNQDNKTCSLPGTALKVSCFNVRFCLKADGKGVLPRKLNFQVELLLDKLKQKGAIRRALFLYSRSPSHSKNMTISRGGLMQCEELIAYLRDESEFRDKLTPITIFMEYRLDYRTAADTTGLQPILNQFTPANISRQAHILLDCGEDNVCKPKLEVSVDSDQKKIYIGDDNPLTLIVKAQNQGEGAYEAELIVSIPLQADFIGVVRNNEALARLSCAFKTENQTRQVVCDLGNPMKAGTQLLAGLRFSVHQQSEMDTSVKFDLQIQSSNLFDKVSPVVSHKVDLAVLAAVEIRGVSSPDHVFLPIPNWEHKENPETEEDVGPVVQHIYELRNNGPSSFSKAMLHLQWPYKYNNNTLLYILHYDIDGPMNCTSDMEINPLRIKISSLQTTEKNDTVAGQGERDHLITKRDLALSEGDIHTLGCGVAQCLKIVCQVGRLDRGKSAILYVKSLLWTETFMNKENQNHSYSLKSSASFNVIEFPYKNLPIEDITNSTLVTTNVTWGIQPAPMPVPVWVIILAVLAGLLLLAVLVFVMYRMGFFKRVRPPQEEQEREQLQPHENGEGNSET", "sequence (P05106 27-788, chain 2 of 2)": "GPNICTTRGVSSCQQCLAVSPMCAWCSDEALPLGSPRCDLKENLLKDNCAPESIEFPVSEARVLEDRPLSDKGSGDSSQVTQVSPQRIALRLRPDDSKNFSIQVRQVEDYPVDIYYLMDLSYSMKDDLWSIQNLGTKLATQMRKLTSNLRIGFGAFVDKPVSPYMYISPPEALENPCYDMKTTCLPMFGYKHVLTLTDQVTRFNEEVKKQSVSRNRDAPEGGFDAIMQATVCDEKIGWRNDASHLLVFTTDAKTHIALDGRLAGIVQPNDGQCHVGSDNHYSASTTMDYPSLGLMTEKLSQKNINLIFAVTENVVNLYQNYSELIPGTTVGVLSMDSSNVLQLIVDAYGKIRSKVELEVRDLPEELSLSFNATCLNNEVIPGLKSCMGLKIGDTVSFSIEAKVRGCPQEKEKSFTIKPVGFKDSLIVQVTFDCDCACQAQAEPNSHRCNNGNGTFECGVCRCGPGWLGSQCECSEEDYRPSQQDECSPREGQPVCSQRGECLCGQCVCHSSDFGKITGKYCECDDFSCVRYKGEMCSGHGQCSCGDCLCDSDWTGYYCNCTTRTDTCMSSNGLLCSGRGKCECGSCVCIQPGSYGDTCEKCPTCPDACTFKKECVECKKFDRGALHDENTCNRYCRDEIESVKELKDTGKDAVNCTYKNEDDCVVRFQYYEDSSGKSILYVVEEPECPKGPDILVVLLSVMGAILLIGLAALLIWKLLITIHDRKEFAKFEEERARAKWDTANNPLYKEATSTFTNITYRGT", "experiment": "radioligand binding"}},
  "note": "Where two headings read alike, the source gives them in different places.",
  "data": [
    {"molecule": "O=C([O-])CN1CCN(CC(=O)[O-])CCN(CC(=O)O)CCN(CC(=O)[O-])CC1.[Ga+3]", "note": "[DOTA complex with Ga(III)]", "values": [
      {"measurement": "thermodynamic stability constant log K", "setting": "[1]; ref 39", "result": 21.33}
    ]},
    {"molecule": "O=C([O-])CN1CCN(CC(=O)[O-])CCN(CC(=O)[O-])CC1.[Ga+3]", "note": "[Ga(III)-NOTA complex]", "values": [
      {"measurement": "acid-catalyzed dissociation", "setting": "[1]; 6N HNO3 for 6 days", "result": "stay inert against the acid-catalyzed dissociation"},
      {"measurement": "thermodynamic stability constant log K", "setting": "[1]; ref 22, 24", "result": 30.98},
      {"measurement": "thermodynamic stability constant log K", "setting": "[1]; ref 24", "result": 30.98}
    ]},
    {"molecule": "O=C([O-])CN1CCN(CC(=O)[O-])CCN(C(CC(=O)O)C(=O)[O-])CC1.[Ga+3]", "note": "(stereo not shown) [Ga-NODASA]", "values": [
      {"measurement": "thermodynamic stability constant log K", "setting": "[1]; ref 24", "result": 30.9}
    ]},
    {"molecule": "N=C(N)NCCC[C@@H]1NC(=O)[C@H](CCCCNC(=S)Nc2ccc(C[C@H]3CN(CC(=O)O)CCN(CC(=O)O)CCN3CC(=O)O)cc2)NC(=O)[C@@H](Cc2ccc(O)cc2)NC(=O)[C@H](CC(=O)O)NC(=O)CNC1=O", "note": "[^68Ga-1a, metal not drawn]", "values": [
      {"measurement": "tissue uptake at 2 h", "setting": "[2]", "result": "1.4 ± 0.36", "unit": "%ID/g"},
      {"measurement": "tumor uptake retention at 2 h p.i.", "setting": "[3]", "result": 43, "unit": "%"},
      {"measurement": "metabolites in urine by radio-HPLC", "setting": "[4]", "result": "no metabolites were detected"},
      {"measurement": "tissue uptake at 0.5 h", "setting": "[5]; kidney uptake", "result": "6.25 ± 0.61", "unit": "%ID/g"},
      {"measurement": "tissue uptake at 2 h", "setting": "[5]; kidney uptake", "result": "2.95 ± 0.76", "unit": "%ID/g"},
      {"measurement": "tissue uptake at 0.5 h", "setting": "[5]; liver uptake", "result": "1.98 ± 0.29", "unit": "%ID/g"},
      {"measurement": "tissue uptake at 2 h", "setting": "[5]; tumor uptake", "result": "1.63 ± 0.19", "unit": "%ID/g"},
      {"measurement": "kidney uptake retained at 2 h p.i.", "setting": "[6]", "result": "less than 60%"},
      {"measurement": "half-life", "setting": "[7]; t1/2(α), distribution half-life", "result": "4 ± 1.1", "unit": "min"},
      {"measurement": "half-life", "setting": "[7]; t1/2(β), terminal half-life", "result": "29.8 ± 7.1", "unit": "min"}
    ]},
    {"molecule": "cyclo(RGDYK) (not fully specified (residue 4))", "note": "[c(RGDyK) peptide]", "values": [
      {"measurement": "IC50", "setting": "integrin αvβ3", "result": 204, "unit": "nM"}
    ]}
  ]
}
